# Data reported in patent publication US20230365623A1, “DERIVATISATION OF PEPTIDES AND PROTEINS” (FLOREY INSTITUTE OF NEUROSCIENCE AND MENTAL HEALTH, priority 2020, published 2023).
# Assay: Atomic force microscopy studies for fibrillation (glucagon)
# Format: physicochemical
# Settings: 287 mM, Milli-Q water pH 2, 37° C., 4 days
# Experimental: For atomic force microscopy experiments, 287 mM solutions of glucagon and glycoglucagon prepared by dissolving each of glucagon and glycoglucagon obtained in Example 9 in Milli-Q water, adjusted to pH 2 with HCl were incubated at 37° C. for four days. Topographic images of glucagon aggregates were collected with a Dimension iCon Atomic Force Microscopy (Bruker, Billerica, MA, USA). Tapping mode atomic force microscopy (AFM) images were recorded using silicon cantilevers (model RTESPA, Veeco, Santa Barbara, CA) with resonance frequency ˜300 kHz, nominal tip radius 8 nm and nominal spring constant 42 N/m.
# Representative AFM height images are shown in FIG. 11, of (A) glucagon (287 mM) and (B) glycoglucagon (287 mM) incubated at 37° C. for 4 days. The vertical colour scale is (A) 6 nm and (B) 3 nm. Scan size: 10×5 μm^2. Each of the images of FIG. 11 are representative of 3-5 scans at different locations with varying scan sizes from 1-10 micron.
substance,measurement,value
"native glucagon: human glucagon peptide (SEQ ID NO:5), synthesised by solid phase synthesis [reference compound]",fibril formation (AFM),forms fibrils
